From publication PMC4321713

Molecular target: Cnidoin fragment (residues 150 to 419) with N-terminal ybbR tag and C-terminal type I dockerin-histidine tag (Hydra magnipapillata | not stated)
Test: AFM single molecule force spectroscopy; Cnidoin-dockerin construct attached covalently by its ybbR tag to a coenzyme A glass surface; CBM A2C-Cohesin on the cantilever tip; 25 mM Tris, 72 mM NaCl, pH 7.2, 1 mM CaCl2, 10 mM DTT; pulling speeds 200 nm/s to 6,400 nm/s

CBM A2C-Cohesin from Clostridium thermocellum (domain or fragment)
rupture force: 100 pN
